Measurements reported in PMC11109247 (Nature Communications, 2024).
“And” between values parts separate entries of the source, which are not always exact repeats. Equal entries are not always repeated.

Key:
[1] = target: the molecule itself; assay: SDS-PAGE without reduction and boiling
[2] = target: T1, soluble NiVMY G ectodomain used for structural determination (residues 72-602, His tag) (Nipah virus Malaysia (NiVMY), UniProt Q9IH62); assay: cryo-EM structure; conditions: both partners purified
T1 construct: source: Expi293F, transient transfection, purified

NiVBD G ectodomain = NiVBD G ectodomain (Nipah virus, Bangladesh (GenBank …, UniProt Q4VCP5, strain)); assay: cell-based or functional assay
NiVMY G ectodomain = NiVMY G ectodomain (Nipah virus, Malaysia (GenBank …, UniProt E2II03)); assay: cell-based or functional assay
HeV G ectodomain = HeV G ectodomain (Hendra virus (isolate …, UniProt O89343)); assay: cell-based or functional assay
Sequence of HeV G ectodomain (Hendra virus (O89343 71-604): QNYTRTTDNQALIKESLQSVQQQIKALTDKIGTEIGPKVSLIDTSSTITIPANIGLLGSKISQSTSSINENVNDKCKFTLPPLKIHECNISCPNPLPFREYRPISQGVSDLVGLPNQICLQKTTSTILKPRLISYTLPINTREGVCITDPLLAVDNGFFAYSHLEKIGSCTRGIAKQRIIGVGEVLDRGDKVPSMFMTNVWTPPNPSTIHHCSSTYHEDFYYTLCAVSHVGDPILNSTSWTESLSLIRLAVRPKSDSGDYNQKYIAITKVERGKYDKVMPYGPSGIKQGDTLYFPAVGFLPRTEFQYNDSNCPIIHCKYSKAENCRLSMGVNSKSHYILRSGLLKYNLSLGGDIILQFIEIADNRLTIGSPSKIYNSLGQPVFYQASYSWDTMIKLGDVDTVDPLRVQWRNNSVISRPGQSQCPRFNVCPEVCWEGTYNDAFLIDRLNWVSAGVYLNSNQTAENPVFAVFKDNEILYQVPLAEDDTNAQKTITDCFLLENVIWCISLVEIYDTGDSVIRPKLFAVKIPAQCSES

B1: NiVMY G ectodomain (residues 72-602), His-tagged, used for structural determination (domain or fragment)
chain: NYTRSTDNQAVIKDALQGIQQQIKGLADKIGTEIGPKVSLIDTSSTITIPANIGLLGSKISQSTASINENVNEKCKFTLPPLKIHECNISCPNPLPFREYRPQTEGVSNLVGLPNNICLQKTSNQILKPKLISYTLPVVGQSGTCITDPLLAMDEGYFAYSHLERIGSCSRGVSKQRIIGVGEVLDRGDEVPSLFMTNVWTPPNPNTVYHCSAVYNNEFYYVLCAVSTVGDPILNSTYWSGSLMMTRLAVKPKSNGGGYNQHQLALRSIEKGRYDKVMPYGPSGIKQGDTLYFPAVGFLVRTEFKYNDSNCPITKCQYSKPENCRLSMGIRPNSHYILRSGLLKYNLSDGENPKVVFIEISDQRLSIGSPSKIYDSLGQPVFYQASFSWDTMIKFGDVLTVNPLVVNWRNNTVISRPGQSQCPRFNTCPEICWEGVYNDAFLIDRINWISAGVFLDSNQTAENPVFTVFKDNEILYRAQLASEDTNAQKTITNCFLLKNKIWCISLVEIYDTGDNVIRPKLFAVKIPEQCT
[1]
  stoichiometry N: 4 and 2

B2: 1E5 Fab (Fab, V domains shown)
VH: QVQLQESGPGVVKPSETLSLTCAVSGGSISDTYRWSWIRQPPGKGLEWIGYIYGSATSTYYNPSLSSRVTISKDMSKNQFSLNLNSVTAADTAVYYCARDYQYYYSGSYPTPHNWFDVWGPGVLVTVSS
VL: DIQMTQSPSSLSASVGDRVTITCRASQGIIDYLSWYQQKPGKAPKLLISTASNLESGVPSRFSGSGSGTEFTLTISSLQPEDFATYSCLQGYTTPYTFGQGTKVEIK
notes: source: Expi293F, transient transfection, purified
[2]
  binding result: binds

B3: 1E5 (antibody, V domains shown)
VH: QVQLQESGPGVVKPSETLSLTCAVSGGSISDTYRWSWIRQPPGKGLEWIGYIYGSATSTYYNPSLSSRVTISKDMSKNQFSLNLNSVTAADTAVYYCARDYQYYYSGSYPTPHNWFDVWGPGVLVTVSS
VL: DIQMTQSPSSLSASVGDRVTITCRASQGIIDYLSWYQQKPGKAPKLLISTASNLESGVPSRFSGSGSGTEFTLTISSLQPEDFATYSCLQGYTTPYTFGQGTKVEIK
NiVBD G ectodomain
  IC50 of neutralisation of authentic NiV-BD (plaque reduction; Fig. 2o): 0.0125 µg/mL
NiVMY G ectodomain
  IC50 of neutralisation of authentic NiV-MY (plaque reduction; Fig. 2o): 0.012 µg/mL
HeV G ectodomain
  IC50 of neutralisation of authentic HeV (plaque reduction; Fig. 2o): 0.147 µg/mL
